According to the supplement of paper PMC10065799, “High-throughput profiling of sequence recognition by tyrosine kinases and SH2 domains using bacterial peptide display” (eLife, 2023):

Tested on: c-Src
Assay: phosphorylation enrichment, bacterial display (enrichment ratio); higher = better substrate or ligand; peptides without Tyr show the background
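Wherever SH2 binding enrichment of the phosphorylated peptide, bacterial display is given: peptide library displayed on the E. coli surface as eCPX fusions, selected cells deep-sequenced, score is each peptide's frequency after selection divided by its frequency in the input.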
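Wherever phosphorylation enrichment, bacterial display is given: 11-residue human phosphosite peptides and single-mutation variants displayed on the E. coli surface, counted by deep sequencing, each peptide's frequency after selection divided by its frequency in the unselected input library; frequency after pTyr selection over input frequency; kinase dosed for 20-30% of maximal phosphorylation in three min.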

| Sequence | phosphorylation enrichment |
| --- | --- |
| SFGMVYEGNAR [INSR_Y1038] | 0.966 |
| NKPTVYGVSPN [ABL1_Y226] | 0.659 |
| GQAPGYSYTAA [CYCS_Y47] | 0.416 |
| LERFIYNPEEF [HLA-DPB1_Y59_R61P_YF] | 2.4 |
| LSTPEYGPKLK [TBC1D14_Y46_A43T] | 0.494 |
| SCRENYSDSEE [LEMD3_Y258] | 0.475 |
| HRGFLYLAIEY [TEK_Y899_Y897F] | 0.541 |
| ERIELYELDKK [PMM2_Y145_F144L] | 0.615 |
| FPKVRYHWLVL [APTX_Y214_A212V_YF] | 0.513 |
| CTTIQYNYMCN [TP53_Y234_H233Q] | 0.441 |
| YETDYYRKGGK [INSR_Y1190] | 0.338 |
| AHLLQYNHQVK [LGALS3_Y221_R224Q] | 0.459 |
| VGNAAYQAGSL [STK36_Y1181_P1185S] | 0.361 |
| PSPMPYASCQM [FOXL2_Y215] | 0.865 |
| GLDGRYLLRDS [SH2D1A_Y29_S28R] | 0.436 |
| RHAASYSSDSE [REPS1_Y116] | 0.607 |
| GMTLSYLFWEP [NDUFS8_Y74_R77W] | 0.659 |
| HRGSLYLAIEY [TEK_Y899_Y897S] | 0.734 |
| SGFESYGSSSF [RPA2_Y9_YF] | 0.368 |
| RVDRDYVLKST [HTATIP2_Y111_A116T] | 0.388 |
| IKNSGYISRYL [EIF2AK3_Y585] | 0.448 |
| TDISLYPSGGT [TENM4_Y399_V396I] | 0.391 |
| QNWELYSEGLG [CNKSR1_Y665_R662W] | 2.08 |
| AIYWRYSKFFD [SH3PXD2B_Y45_R43W] | 0.97 |
| PSRKDYETFQS [CTNND2_Y1154_P1159S_YF] | 0.729 |
| MENFIYESMQF [CYP19A1_Y361_R365Q_YF] | 7.14 |
| VLAHKYHGGGG [HBB_Y146_A141V] | 0.363 |
| YFWDGYMPRQY [GSS_Y270_R267W] | 0.772 |
| IDPFIYTPFGS [CYP3A4_Y432_YF] | 6.49 |

Biological target: Grb2 SH2 (UniProt P62993)
Assay: SH2 binding enrichment of the phosphorylated peptide, bacterial display (enrichment ratio); higher = better substrate or ligand; peptides without Tyr show the background

Sequence of Grb2 SH2 (P62993 whole entry, looked up): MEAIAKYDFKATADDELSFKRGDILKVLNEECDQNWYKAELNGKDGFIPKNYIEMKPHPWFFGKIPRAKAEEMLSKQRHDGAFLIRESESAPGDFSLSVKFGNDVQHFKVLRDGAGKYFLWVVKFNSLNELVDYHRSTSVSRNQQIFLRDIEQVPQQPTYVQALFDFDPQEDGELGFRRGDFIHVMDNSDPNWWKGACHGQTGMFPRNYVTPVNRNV

| Sequence | SH2 binding enrichment |
| --- | --- |
| SFGMVYEGNAR [INSR_Y1038] | 0.879 |
| NKPTVYGVSPN [ABL1_Y226] | 0.899 |
| GQAPGYSYTAA [CYCS_Y47] | 0.873 |
| LERFIYNPEEF [HLA-DPB1_Y59_R61P_YF] | 0.791 |
| LSTPEYGPKLK [TBC1D14_Y46_A43T] | 0.796 |
| SCRENYSDSEE [LEMD3_Y258] | 1.05 |
| HRGFLYLAIEY [TEK_Y899_Y897F] | 1.15 |
| ERIELYELDKK [PMM2_Y145_F144L] | 0.803 |
| FPKVRYHWLVL [APTX_Y214_A212V_YF] | 1.31 |
| CTTIQYNYMCN [TP53_Y234_H233Q] | 1.37 |
| YETDYYRKGGK [INSR_Y1190] | 0.675 |
| AHLLQYNHQVK [LGALS3_Y221_R224Q] | 0.631 |
| VGNAAYQAGSL [STK36_Y1181_P1185S] | 0.668 |
| PSPMPYASCQM [FOXL2_Y215] | 0.688 |
| GLDGRYLLRDS [SH2D1A_Y29_S28R] | 0.817 |
| RHAASYSSDSE [REPS1_Y116] | 0.985 |
| GMTLSYLFWEP [NDUFS8_Y74_R77W] | 0.984 |
| HRGSLYLAIEY [TEK_Y899_Y897S] | 0.646 |
| SGFESYGSSSF [RPA2_Y9_YF] | 0.761 |
| RVDRDYVLKST [HTATIP2_Y111_A116T] | 1.01 |
| IKNSGYISRYL [EIF2AK3_Y585] | 1.08 |
| TDISLYPSGGT [TENM4_Y399_V396I] | 0.661 |
| QNWELYSEGLG [CNKSR1_Y665_R662W] | 0.958 |
| AIYWRYSKFFD [SH3PXD2B_Y45_R43W] | 0.794 |
| PSRKDYETFQS [CTNND2_Y1154_P1159S_YF] | 0.76 |
| MENFIYESMQF [CYP19A1_Y361_R365Q_YF] | 0.679 |
| VLAHKYHGGGG [HBB_Y146_A141V] | 0.939 |
| YFWDGYMPRQY [GSS_Y270_R267W] | 1.11 |
| IDPFIYTPFGS [CYP3A4_Y432_YF] | 0.861 |

Biological target: SHP2-C SH2
Assay: as above

| Sequence | SH2 binding enrichment |
| --- | --- |
| SFGMVYEGNAR [INSR_Y1038] | 0.798 |
| NKPTVYGVSPN [ABL1_Y226] | 0.523 |
| GQAPGYSYTAA [CYCS_Y47] | 0.659 |
| LERFIYNPEEF [HLA-DPB1_Y59_R61P_YF] | 0.866 |
| LSTPEYGPKLK [TBC1D14_Y46_A43T] | 0.733 |
| SCRENYSDSEE [LEMD3_Y258] | 0.832 |
| HRGFLYLAIEY [TEK_Y899_Y897F] | 0.77 |
| ERIELYELDKK [PMM2_Y145_F144L] | 0.635 |
| FPKVRYHWLVL [APTX_Y214_A212V_YF] | 0.999 |
| CTTIQYNYMCN [TP53_Y234_H233Q] | 2.31 |
| YETDYYRKGGK [INSR_Y1190] | 0.676 |
| AHLLQYNHQVK [LGALS3_Y221_R224Q] | 0.401 |
| VGNAAYQAGSL [STK36_Y1181_P1185S] | 0.705 |
| PSPMPYASCQM [FOXL2_Y215] | 0.848 |
| GLDGRYLLRDS [SH2D1A_Y29_S28R] | 0.7 |
| RHAASYSSDSE [REPS1_Y116] | 0.735 |
| GMTLSYLFWEP [NDUFS8_Y74_R77W] | 0.916 |
| HRGSLYLAIEY [TEK_Y899_Y897S] | 0.501 |
| SGFESYGSSSF [RPA2_Y9_YF] | 0.574 |
| RVDRDYVLKST [HTATIP2_Y111_A116T] | 0.843 |
| IKNSGYISRYL [EIF2AK3_Y585] | 1.01 |
| TDISLYPSGGT [TENM4_Y399_V396I] | 0.616 |
| QNWELYSEGLG [CNKSR1_Y665_R662W] | 0.771 |
| AIYWRYSKFFD [SH3PXD2B_Y45_R43W] | 0.645 |
| PSRKDYETFQS [CTNND2_Y1154_P1159S_YF] | 0.55 |
| MENFIYESMQF [CYP19A1_Y361_R365Q_YF] | 0.691 |
| VLAHKYHGGGG [HBB_Y146_A141V] | 0.852 |
| YFWDGYMPRQY [GSS_Y270_R267W] | 1.1 |
| IDPFIYTPFGS [CYP3A4_Y432_YF] | 1.06 |

Biological target: c-Src SH2
Assay: as above

| Sequence | SH2 binding enrichment |
| --- | --- |
| SFGMVYEGNAR [INSR_Y1038] | 0.536 |
| NKPTVYGVSPN [ABL1_Y226] | 0.501 |
| GQAPGYSYTAA [CYCS_Y47] | 0.791 |
| LERFIYNPEEF [HLA-DPB1_Y59_R61P_YF] | 0.399 |
| LSTPEYGPKLK [TBC1D14_Y46_A43T] | 0.445 |
| SCRENYSDSEE [LEMD3_Y258] | 0.78 |
| HRGFLYLAIEY [TEK_Y899_Y897F] | 0.45 |
| ERIELYELDKK [PMM2_Y145_F144L] | 0.487 |
| FPKVRYHWLVL [APTX_Y214_A212V_YF] | 0.892 |
| CTTIQYNYMCN [TP53_Y234_H233Q] | 4.11 |
| YETDYYRKGGK [INSR_Y1190] | 0.622 |
| AHLLQYNHQVK [LGALS3_Y221_R224Q] | 0.503 |
| VGNAAYQAGSL [STK36_Y1181_P1185S] | 0.356 |
| PSPMPYASCQM [FOXL2_Y215] | 1.24 |
| GLDGRYLLRDS [SH2D1A_Y29_S28R] | 0.515 |
| RHAASYSSDSE [REPS1_Y116] | 0.569 |
| GMTLSYLFWEP [NDUFS8_Y74_R77W] | 0.737 |
| HRGSLYLAIEY [TEK_Y899_Y897S] | 0.375 |
| SGFESYGSSSF [RPA2_Y9_YF] | 0.404 |
| RVDRDYVLKST [HTATIP2_Y111_A116T] | 0.436 |
| IKNSGYISRYL [EIF2AK3_Y585] | 0.706 |
| TDISLYPSGGT [TENM4_Y399_V396I] | 0.436 |
| QNWELYSEGLG [CNKSR1_Y665_R662W] | 0.628 |
| AIYWRYSKFFD [SH3PXD2B_Y45_R43W] | 0.466 |
| PSRKDYETFQS [CTNND2_Y1154_P1159S_YF] | 0.439 |
| MENFIYESMQF [CYP19A1_Y361_R365Q_YF] | 0.448 |
| VLAHKYHGGGG [HBB_Y146_A141V] | 0.464 |
| YFWDGYMPRQY [GSS_Y270_R267W] | 1.07 |
| IDPFIYTPFGS [CYP3A4_Y432_YF] | 0.604 |
